Data as given in publication PMC9818667.

T1: angiotensin-converting enzyme (ACE) from rabbit lung (rabbit) (UniProt P12822)
T1 sequence: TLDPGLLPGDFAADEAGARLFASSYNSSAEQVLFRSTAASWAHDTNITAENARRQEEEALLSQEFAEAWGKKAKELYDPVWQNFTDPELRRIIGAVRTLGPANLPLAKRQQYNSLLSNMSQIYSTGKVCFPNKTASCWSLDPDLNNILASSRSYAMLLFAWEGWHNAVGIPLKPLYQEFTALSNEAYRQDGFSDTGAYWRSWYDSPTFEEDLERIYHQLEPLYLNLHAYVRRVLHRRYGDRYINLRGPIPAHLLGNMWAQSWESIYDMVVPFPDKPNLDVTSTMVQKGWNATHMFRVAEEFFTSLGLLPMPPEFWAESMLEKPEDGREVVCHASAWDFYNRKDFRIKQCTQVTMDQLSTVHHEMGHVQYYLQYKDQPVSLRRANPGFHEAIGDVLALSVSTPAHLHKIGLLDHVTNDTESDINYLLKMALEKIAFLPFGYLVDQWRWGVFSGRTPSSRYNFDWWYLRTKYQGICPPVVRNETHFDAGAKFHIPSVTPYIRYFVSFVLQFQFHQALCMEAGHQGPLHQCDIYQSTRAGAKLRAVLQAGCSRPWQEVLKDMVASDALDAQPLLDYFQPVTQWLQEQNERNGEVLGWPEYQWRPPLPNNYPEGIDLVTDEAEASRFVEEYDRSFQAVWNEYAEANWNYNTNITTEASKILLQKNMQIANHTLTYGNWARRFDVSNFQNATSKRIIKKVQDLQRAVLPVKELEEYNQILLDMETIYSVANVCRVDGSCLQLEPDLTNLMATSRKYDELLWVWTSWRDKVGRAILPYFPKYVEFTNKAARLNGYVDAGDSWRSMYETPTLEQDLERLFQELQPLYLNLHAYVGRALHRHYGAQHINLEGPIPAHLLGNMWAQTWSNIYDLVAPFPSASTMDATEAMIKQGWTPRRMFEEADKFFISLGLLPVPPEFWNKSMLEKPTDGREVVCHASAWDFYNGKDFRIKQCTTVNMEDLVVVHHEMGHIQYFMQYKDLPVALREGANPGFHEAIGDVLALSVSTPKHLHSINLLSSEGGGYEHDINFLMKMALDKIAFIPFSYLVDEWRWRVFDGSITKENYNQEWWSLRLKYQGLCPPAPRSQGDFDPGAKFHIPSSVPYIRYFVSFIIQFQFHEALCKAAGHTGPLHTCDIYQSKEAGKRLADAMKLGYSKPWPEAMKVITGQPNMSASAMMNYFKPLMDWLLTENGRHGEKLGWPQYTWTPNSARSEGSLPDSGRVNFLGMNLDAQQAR


molecular target: T1, angiotensin-converting enzyme (ACE) from rabbit lung (rabbit)

| ACE inhibitory activity (substrate HHL, hippuric acid by HPLC), peptide at 1 mg/mL | IC50 of ACE inhibitory activity (substrate HHL, hippuric acid by HPLC) | Binder |
| --- | --- | --- |
| 1.57% | – | STGEAFVQFASQEIAEK |
| 26.7% | – | TTPSYVAFTDTER |

The remaining lines, values behind:

| Binder | ACE inhibitory activity (substrate HHL, hippuric acid by HPLC), peptide at 1 mg/mL | IC50 of ACE inhibitory activity (substrate HHL, hippuric acid by HPLC) |
| --- | --- | --- |
| QFQPGFSSS | 40.9% | – |
| NPDDITNEEYGEFYK | 2.81% | – |
| VALSSLRP | 91.7% | 39 µg/mL |
